Assay results: US20190000984A1

Biological target: IL-4R (interleukin-4 receptor) (UniProt P24394)
Experiment: cell-based or functional assay

attenuation of IL-4R activity against the control constructs (STAT6-luciferase): > 10%
B1: anti-IL-4R:anti-CD63 conjugate (streptavidin-conjugated anti-IL-4R antibody combined 1:1 with biotinylated anti-CD63 antibody MEM-259) (protein, part only; not given: anti-CD63 antibody and constant regions, part only)
VH: EVQLVESGGGVVQPGRSLRLSCVASGFTFSDYGMHWVRQAPGKGLEWVAVIWYDGSIKYFRDSVKGRFTISRDNSKNTLYLQMNSLRVEDTAHYYCAKESSSWYFYHGLDVWGQGTMVTVSS
VL: EIVMTQSPLSLPVSPGEPASISCRSNQSLLHSNGNNYLAWYLQKPGQSPHLLIYLGSNRASGVPDRFSGSGSGTDFTLKISRVEAGDVGTYFCMQSLQAPPFTFGPGTKVEIKR
modifications: antibody conjugated to streptavidin (site not stated)
